Experiment in all cases: holdup assay
What all share (parameters): key: below the threshold = too weak to quantify, mostly under pKd 3.1 to 4

In one test the target is T1, MPDZ_10, O75970.
T1 sequence (O75970 1624-1722, limits assumed, looked up): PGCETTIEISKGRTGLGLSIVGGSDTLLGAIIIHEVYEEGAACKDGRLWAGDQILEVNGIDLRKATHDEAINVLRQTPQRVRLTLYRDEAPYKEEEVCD

Another test has as its target PARD3_3, Q8TEW0.
A further test has as its target TJP1_2, Q07157.
The target of the next test is DLG5_2, Q8TDM6. The following applies: plain residues with an end cap or a label only (N-terminal biotin on a linker: ttds).
Another test deals with T2, GRIP1_1, Q9Y3R0.
T2 sequence (Q9Y3R0 48-146, limits assumed, looked up): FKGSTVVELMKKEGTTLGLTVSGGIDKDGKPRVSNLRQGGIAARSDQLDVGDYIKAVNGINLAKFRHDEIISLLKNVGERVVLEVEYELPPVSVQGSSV
The following applies: plain residues with an end cap or a label only (N-terminal biotin on a linker: ttds).

For the next test, the target named is IL16_2, Q14005. The following applies: plain residues with an end cap or a label only (N-terminal biotin on a linker: ttds).
In another test the target is Inadl_7, Q8NI35. The following applies: plain residues with an end cap or a label only (N-terminal biotin on a linker: ttds).
In another test the target is MAGI1_6, Q96QZ7. The following applies: plain residues with an end cap or a label only (N-terminal biotin on a linker: ttds).
Another test concerns the target T3, MAGI2_1, Q86UL8.
T3 sequence (Q86UL8 12-111, limits assumed, looked up): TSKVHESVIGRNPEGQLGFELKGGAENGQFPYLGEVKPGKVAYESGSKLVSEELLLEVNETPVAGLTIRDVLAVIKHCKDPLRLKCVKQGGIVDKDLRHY
The following applies: plain residues with an end cap or a label only (N-terminal biotin on a linker: ttds).

For a further test, the target named is MAGI3_4, Q5TCQ9. The following applies: plain residues with an end cap or a label only (N-terminal biotin on a linker: ttds).
The target of a further test is MAGIX, Q9H6Y5. The following applies: plain residues with an end cap or a label only (N-terminal biotin on a linker: ttds).
The next test has as its target T4, MPDZ_13, O75970.
T4 sequence (O75970 1982-2070, limits assumed, looked up): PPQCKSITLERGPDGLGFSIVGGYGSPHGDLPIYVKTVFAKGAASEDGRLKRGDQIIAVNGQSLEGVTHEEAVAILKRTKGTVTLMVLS
The following applies: plain residues with an end cap or a label only (N-terminal biotin on a linker: ttds).

Another test addresses T5, MPP1, Q00013.
T5 sequence (Q00013 66-162, limits assumed, looked up): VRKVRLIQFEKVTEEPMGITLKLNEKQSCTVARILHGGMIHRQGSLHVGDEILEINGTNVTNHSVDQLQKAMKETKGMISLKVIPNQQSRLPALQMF
The following applies: plain residues with an end cap or a label only (N-terminal biotin on a linker: ttds).

The next test concerns the target T6, NHERF3_2, Q5T2W1.
T6 sequence (Q5T2W1 129-225, limits assumed, looked up): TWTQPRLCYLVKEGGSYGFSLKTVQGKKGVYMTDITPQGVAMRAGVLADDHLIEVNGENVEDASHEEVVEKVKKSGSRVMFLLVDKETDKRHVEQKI
The following applies: plain residues with an end cap or a label only (N-terminal biotin on a linker: ttds).

Another test addresses PARD3B_3, Q8TEW8. The following applies: plain residues with an end cap or a label only (N-terminal biotin on a linker: ttds).
Another test addresses T7, PDZD2_6, O15018.
T7 sequence (O15018 2745-2839, limits assumed, looked up): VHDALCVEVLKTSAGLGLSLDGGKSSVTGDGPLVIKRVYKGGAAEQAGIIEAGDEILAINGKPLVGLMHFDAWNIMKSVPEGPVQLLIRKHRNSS
The following applies: plain residues with an end cap or a label only (N-terminal biotin on a linker: ttds).

The target of another test is T8, PDZD7_2, Q9H5P4.
T8 sequence (Q9H5P4 205-303, limits assumed, looked up): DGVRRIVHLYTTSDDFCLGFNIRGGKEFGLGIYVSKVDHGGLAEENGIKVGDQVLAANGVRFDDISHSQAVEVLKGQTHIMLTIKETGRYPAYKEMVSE
The following applies: plain residues with an end cap or a label only (N-terminal biotin on a linker: ttds).

The next test addresses T9, PTPN13_5, Q12923.
T9 sequence (Q12923 1877-1975, limits assumed, looked up): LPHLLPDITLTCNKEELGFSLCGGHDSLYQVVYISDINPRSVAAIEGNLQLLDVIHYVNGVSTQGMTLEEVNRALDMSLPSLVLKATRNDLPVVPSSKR
The following applies: plain residues with an end cap or a label only (N-terminal biotin on a linker: ttds).

For the next test, the target named is T10, PTPN4, P29074.
T10 sequence (P29074 512-599, limits assumed, looked up): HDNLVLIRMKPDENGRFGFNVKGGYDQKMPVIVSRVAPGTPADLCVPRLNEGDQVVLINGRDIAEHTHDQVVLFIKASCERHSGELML
The following applies: plain residues with an end cap or a label only (N-terminal biotin on a linker: ttds).

The next test addresses RIMS1, Q86UR5. The following applies: plain residues with an end cap or a label only (N-terminal biotin on a linker: ttds).
The target in a further test is SCRIB_4, Q14160. The following applies: plain residues with an end cap or a label only (N-terminal biotin on a linker: ttds).
The next test deals with T11, SHANK3, Q9BYB0.
T11 sequence (Q9BYB0 641-750, limits assumed, looked up): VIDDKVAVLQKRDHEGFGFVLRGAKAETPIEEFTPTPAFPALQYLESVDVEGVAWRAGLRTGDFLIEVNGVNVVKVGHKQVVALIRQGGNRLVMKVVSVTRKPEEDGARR
The following applies: plain residues with an end cap or a label only (N-terminal biotin on a linker: ttds).

Another test addresses T12, SHROOM2, Q13796.
T12 sequence (Q13796 21-118, limits assumed, looked up): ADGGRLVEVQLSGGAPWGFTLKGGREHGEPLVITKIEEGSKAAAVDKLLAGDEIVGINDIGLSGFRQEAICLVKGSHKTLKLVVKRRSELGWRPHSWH
The following applies: plain residues with an end cap or a label only (N-terminal biotin on a linker: ttds).

A further test addresses T13, INTU, Q9ULD6.
T13 sequence (Q9ULD6 180-273, limits assumed, looked up): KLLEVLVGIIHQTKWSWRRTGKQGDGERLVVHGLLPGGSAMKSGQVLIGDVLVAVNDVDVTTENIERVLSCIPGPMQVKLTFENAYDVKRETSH
The following applies: plain residues with an end cap or a label only (N-terminal biotin on a linker: ttds).

The mark [1] stands for this setting: plain residues with an end cap or a label only (N-terminal biotin on a linker: ttds).
[2] abbreviates: plain residues with an end cap or a label only (N-terminal biotin on a linker: ado-ado).
Where [3] appears, read: plain residues with an end cap or a label only (N-terminal biotin on a linker: ahx).
Setting [4] is: plain residues with an end cap or a label only (N-terminal biotin on a linker: gsgsgs; C-terminal amide).

Sequence of TJP1_2, Q07157 (Q07157 181-274): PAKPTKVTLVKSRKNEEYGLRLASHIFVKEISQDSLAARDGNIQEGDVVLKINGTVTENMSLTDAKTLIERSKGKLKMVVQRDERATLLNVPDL
Sequence of PARD3_3, Q8TEW0 (Q8TEW0 582-685): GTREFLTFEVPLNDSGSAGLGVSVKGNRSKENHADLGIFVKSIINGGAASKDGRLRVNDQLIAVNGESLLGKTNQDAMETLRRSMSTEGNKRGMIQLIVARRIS
Sequence of MAGI3_4, Q5TCQ9 (Q5TCQ9 716-815): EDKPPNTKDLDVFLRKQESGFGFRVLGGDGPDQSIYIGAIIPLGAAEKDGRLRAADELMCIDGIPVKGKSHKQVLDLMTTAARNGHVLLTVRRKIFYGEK
Sequence of DLG5_2, Q8TDM6 (Q8TDM6 714-800): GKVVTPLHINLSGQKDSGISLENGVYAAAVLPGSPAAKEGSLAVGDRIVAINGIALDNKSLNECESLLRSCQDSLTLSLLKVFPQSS
Sequence of SCRIB_4, Q14160 (Q14160 1095-1204): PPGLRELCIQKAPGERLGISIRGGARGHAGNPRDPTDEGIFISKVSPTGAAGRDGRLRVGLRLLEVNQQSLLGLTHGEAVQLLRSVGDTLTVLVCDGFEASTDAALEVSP
Sequence of RIMS1, Q86UR5 (Q86UR5 584-692): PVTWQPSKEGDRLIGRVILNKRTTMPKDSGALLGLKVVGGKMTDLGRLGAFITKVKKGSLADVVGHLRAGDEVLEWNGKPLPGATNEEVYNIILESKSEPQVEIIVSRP
Sequence of MAGI1_6, Q96QZ7 (Q96QZ7 1146-1238): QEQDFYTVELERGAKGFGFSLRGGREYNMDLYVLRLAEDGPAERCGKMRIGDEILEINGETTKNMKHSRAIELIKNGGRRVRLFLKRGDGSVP
Sequence of MAGIX, Q9H6Y5 (Q9H6Y5 118-211): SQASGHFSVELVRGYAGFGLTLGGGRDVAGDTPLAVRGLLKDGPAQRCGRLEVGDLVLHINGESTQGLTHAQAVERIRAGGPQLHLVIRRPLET
Sequence of PARD3B_3, Q8TEW8 (Q8TEW8 490-594): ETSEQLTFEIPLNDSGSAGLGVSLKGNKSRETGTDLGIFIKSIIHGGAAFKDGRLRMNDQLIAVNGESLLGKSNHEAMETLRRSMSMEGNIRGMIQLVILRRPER
Sequence of IL16_2, Q14005 (Q14005 350-450): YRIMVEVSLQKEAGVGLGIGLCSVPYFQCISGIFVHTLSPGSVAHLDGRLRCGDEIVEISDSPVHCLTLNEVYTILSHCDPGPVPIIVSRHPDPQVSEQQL
Sequence of Inadl_7, Q8NI35 (Q8NI35 1219-1332): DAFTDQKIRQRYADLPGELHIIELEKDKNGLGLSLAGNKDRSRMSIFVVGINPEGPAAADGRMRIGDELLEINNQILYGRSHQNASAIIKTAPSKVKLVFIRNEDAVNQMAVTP

What is called pKd is the negative decadic logarithm of the Kd, by convention in mol/L. Turning to IYVPEAQTRL [DLGAP4, Q9Y2H0], the pKd result with MPDZ_10, O75970 (setting [1]) was “below the threshold”; with PARD3_3, Q8TEW0 (setting [1]), 3.87; with TJP1_2, Q07157 (setting [1]), “below the threshold”.

As for KSRVAFFEEL [NF2, P35240], the pKd with PARD3_3, Q8TEW0 (setting [2]) came to 3.72; with TJP1_2, Q07157 (setting [2]), 3.51.

For the molecule IDNDTESTAL [ARHGAP17, Q68EM7], the pKd result with MPDZ_10, O75970 (setting [1]) is “below the threshold”; in the test with PARD3_3, Q8TEW0 (setting [1]) it was “below the threshold”; with TJP1_2, Q07157 (setting [1]), “below the threshold”.

Consider RSLEEEESQL [GRASP, Q7Z6J2], for which the pKd result with DLG5_2, Q8TDM6 is on record as “below the threshold”; with GRIP1_1, Q9Y3R0, “below the threshold”; in the test with IL16_2, Q14005 it was “below the threshold”; with Inadl_7, Q8NI35, “below the threshold”; with MAGI1_6, Q96QZ7 it was “below the threshold”; in the test with MAGI2_1, Q86UL8, “below the threshold”. Moreover, the negative-log Kd (pKd) result is listed as “below the threshold” with MAGI3_4, Q5TCQ9; “below the threshold” with MAGIX, Q9H6Y5; “below the threshold” in the test with MPDZ_10, O75970 (setting [1]); “below the threshold” with MPDZ_13, O75970; “below the threshold” with MPP1, Q00013; “below the threshold” with NHERF3_2, Q5T2W1. Also, the pKd entry is “below the threshold” with PARD3B_3, Q8TEW8; 4.13 in the test with PARD3_3, Q8TEW0 (setting [1]); “below the threshold” with PDZD2_6, O15018; “below the threshold” in the test with PDZD7_2, Q9H5P4; “below the threshold” with PTPN13_5, Q12923; “below the threshold” in the test with PTPN4, P29074. The pKd result in the test with RIMS1, Q86UR5 is “below the threshold”; in the test with SCRIB_4, Q14160 it was “below the threshold”; with SHANK3, Q9BYB0 it was 5.24; with SHROOM2, Q13796 it was “below the threshold”; with TJP1_2, Q07157 (setting [1]) it was “below the threshold”.

On to PKTPPTDTSV [KIR3DL3, Q8N743], for which the pKd result was “below the threshold” in the test with DLG5_2, Q8TDM6; “below the threshold” with GRIP1_1, Q9Y3R0; “below the threshold” with IL16_2, Q14005; “below the threshold” with INTU, Q9ULD6; 4.22 with MAGI1_6, Q96QZ7; “below the threshold” with MAGI2_1, Q86UL8. The pKd result was “below the threshold” in the test with MAGI3_4, Q5TCQ9; “below the threshold” in the test with MAGIX, Q9H6Y5; “below the threshold” with MPDZ_10, O75970 (setting [1]); “below the threshold” in the test with MPDZ_13, O75970; “below the threshold” with MPP1, Q00013; “below the threshold” in the test with NHERF3_2, Q5T2W1. Moreover, the pKd result was “below the threshold” in the test with PARD3B_3, Q8TEW8; “below the threshold” with PARD3_3, Q8TEW0 (setting [1]); “below the threshold” with PDZD2_6, O15018; “below the threshold” in the test with PDZD7_2, Q9H5P4; “below the threshold” with PTPN13_5, Q12923; “below the threshold” with PTPN4, P29074. For the same molecule, the negative logarithm of the Kd (pKd) entry was “below the threshold” with RIMS1, Q86UR5; “below the threshold” with SCRIB_4, Q14160; “below the threshold” in the test with SHANK3, Q9BYB0; “below the threshold” with SHROOM2, Q13796; “below the threshold” with TJP1_2, Q07157 (setting [1]).

HTHSYIETHV [CNKSR2, Q8WXI2]: the pKd entry with MPDZ_10, O75970 (setting [3]) is “below the threshold”; with PARD3_3, Q8TEW0 (setting [3]) it was “below the threshold”; with TJP1_2, Q07157 (setting [3]) it was “below the threshold”.

For TLSLTDSSVDGIPPYR [AXIN1_int, O15169], the pKd result was “below the threshold” with MPDZ_10, O75970 (setting [4]); “below the threshold” in the test with PARD3_3, Q8TEW0 (setting [4]); “below the threshold” with TJP1_2, Q07157 (setting [4]).

Consider ERKLSSESQV [LRP4, O75096], for which the pKd entry was “below the threshold” in the test with MPDZ_10, O75970 (setting [1]); “below the threshold” with PARD3_3, Q8TEW0 (setting [1]); “below the threshold” with TJP1_2, Q07157 (setting [1]).

As for GQDSREETQL [KCNT2, Q6UVM3], the pKd result in the test with MPDZ_10, O75970 (setting [1]) was “below the threshold”; in the test with PARD3_3, Q8TEW0 (setting [1]), 4.04; with TJP1_2, Q07157 (setting [1]) it was “below the threshold”.

Consider KRPEMTSSSV [MUC3B, MUC3A, Q02505;Q9H195], for which the negative-log Kd (pKd) result with TJP1_2, Q07157 (setting [2]) is reported as “below the threshold”.

Turning to TVASEKESVM [SLC1A5, Q15758], the negative-log Kd (pKd) entry with MPDZ_10, O75970 (setting [1]) is “below the threshold”; with PARD3_3, Q8TEW0 (setting [1]), “below the threshold”; with TJP1_2, Q07157 (setting [1]) it was “below the threshold”.

With VLRLQSETSV [VANGL1, Q8TAA9], the pKd result with MPDZ_10, O75970 (setting [1]) is “below the threshold”; with PARD3_3, Q8TEW0 (setting [1]), “below the threshold”; in the test with TJP1_2, Q07157 (setting [1]), “below the threshold”.

For the molecule TEAKLTETNA [MYO18A, Q92614], the pKd result with MPDZ_10, O75970 (setting [3]) is “below the threshold”; with PARD3_3, Q8TEW0 (setting [3]) it was “below the threshold”; with TJP1_2, Q07157 (setting [3]), “below the threshold”.

For the origin of these results see paper PMC9482650, “Quantitative fragmentomics allow affinity mapping of interactomes” (Nature Communications, 2022).
